From the DeepSol protein solubility set

Assay: soluble on expression in E. coli; label from the status in PepcDB or PDB records

| Sequence | soluble on expression in E. coli |
| --- | --- |
| MSLTALSALIEQKLQSLGTILCQSFPELSPEKIHEAIQQNSNHPELPVYQLGYAIAMSDFVEKVLQKYPHLVKQWWEKSPCFADCTAYIERLNKELANVHDETALYQTLRQFRNIEMAKLSFCQSLNLATVEEIFVQLSQLAESLIIAARDWLYHQACAEIGTPMDEQGNPQQLYILGMGKLGGFELNFSSDIDLIFTYPSQGETSVENTNARRSVDNGKFFTRLGQRLISALDEFTSDGFVYRTDMRLRPFGDSGVLVLSFSAMEQYYQDQGRDWERYAMIKGRVLGAQTKDPNVSKLKKMLRPFVYRRYIDFSVIQSLREMKGKIEREVRRRGLKDNIKLGAGGIREVEFIVQVFQLIRGGREINLQQHSLLKILPEITKLRLITEQQFHDLRESYIFLRRVENILQAINDQQTQTLPTDEIDQIRLVEACKTFTCLNENNQTIEKHYPIENWDDFYRTLQQKQEKVRAVFTQLIGDEQDESSQTDSQWQDFLEADFEDIEQTLLESSVSENNIDEVLEKLAQFKDGLNHRVIGSRGRDVLSHLMPTVLALIFEQENYRTLLPRILNIIEKISSRTTYLELLLENPRALQQVIELCAQSQLISEQLAHYPILLDELLNTEALRHPLPFTQYPAELHQYLLRLPPDDEEQLIDALRQFKQATLLKVAAADILGALPVMKVSDHLTYLAEAIIEVVVNLAWKQVSSRFGVPEHLQNNEKGFLVIGYGKLGGIELGYKSDLDLVFLYDAVESQTTGGKKVIDSNQFYLRLAQKIVSIFSINTSAGVLYEADMRLRPSGDAGLIGCSLSAFSHYQLNDAWTWEKQALVRARPVFGESSLKAKFEHIRQQVLSASRDIEQLKQDVVEMRKKMFAHLSHSKHSEFNLKTDRGGITDIEFIAQYLMLANAPKKPQLTKWSDNVRIFDDMAEAKIISQTDCDTLKQCYVDLRNTIHHLNLLGKSSVVEDSEFVKERSFIQAFWDRLFVSEGHHHHHH | soluble |
| MAHHHHHHMPPPPPAPPPPPPPPPPPKATEGNSSSTVGGAASALFAEIRQGGDNITSRLRHVTDDQKAYKQNIQHGAVDFSDLDAKKAEAEAKRQQKQKQPETTAAEEPVTRLEGDKRWVVKHHKGTPSEPCKVTLEDVNMRHAVHIHGCDNTFVEVKGKVNTVSVVSCNKAQVILESVVSALEVLKSDSVDVTVRRFVPTAMVEKSTSVNLFLMDVEEAPNTEIVTACSSAVNVNFPTVEDPTDILERPLPEQFVSRIVRDNRGKYKIETKPNEVA | soluble |
| MLRRGYKASERRRHLSERLSWHQDQALSSSIYLLREMGPTGFLLREEEPEYMDFRVFLGNPHVCNCSTFPKGGELCKHICWVLLKKFELPRNHESALQLGLGEREISDLLRGIHRVQTPQPGTNDENEHVEEDGYIKQKEIDSEDICSICQELLLEKKLPVTFCRFGCGNSIHIKCMKILANYQSTSNTSMLKCPLCRKEFAPLKLILEEFKNSSKLVAAAEKERLDKHLGIPCNNCKQFPIEGKCYKCTECIEYHLCQECFDSYCHLSHTFTFREKRNQKWRSLEKRADEVVKYIDTKNETEEKMSHFQEKQGQVYTPKHIVRSLPLQLITKNSKLLAPGYQCLLCLKAFHLGQHTRLLPCTHKFHRKCIDNWLFHKCNSCPIGGQVIYNPLTWKNSAVNGQAHQSVSNRDIIHLSKQKEPDLFIPGTGLVLKQNRLGILPSIPQCNFDELNTPQSPKDAYENTTIDNLCSIKLDNSNSKKLTYEYKISQHFPRYLQDLPTVSFGKIPSQTLLPPIVHKNIVCPTAMESPCISGKYHTSLSRVTKGCKCNNHNLKKTPATKIREDNKRSTLLPEDFNLIVNWSTAKLSLSKRYSNCMGEITRKCSHLSRQPVSHSVNTKSTELSLIIEGVQL | soluble |
| MIKGTGHMIVNIANDRGMSIDSIRKTIKESVLIAYKKYFGSNENAFIKFDDDTGDLSVYAKKKIVKEVKDSLLEILEKDISKENIVEGDYAYIEINPKVFDRLSIQVAKQRTKNDLQGIEDNEILSEFKSKLNKVVIGYVQQNRNGDLYVNLGNTDGIIPKKYQSPLEHHHHHH | not soluble |
| MKRIILSIVWGLLTGWAAVPCLWAQSRTGTADREIWVKTLVRLADPVLSNLANETLKKEMPYESLAPNRQRFSYLEAVGRTVCGIAPWLELGEDDTPEGQLRKKYIELTVKGISNAVNPSSPDYLIFGEPSQPLVDAAFLAEGLLRAPKQLWGNLSPAARKQVVTELKRSRVIKPNESNWLLFASIVEAALQEFTGECDTTRLNYGVRKFRDLWYKGDAQYGDGAEFHLDYYNSFVIHPMLTDVLVVMQKHRMPESEFLNVQQKRLGRYAEQLERFISPEGTYPVIGRSIVYRTGVFHALGQAALLHLLPQQIVPAQVRCGMTKVIENQFRSAANFDTKGWLKIGFSGNQVQMSESYINTGSTYLCLTGFLPLGLPADDPFWSAPPAEWTNLKAWSGKEMPADHSLLEHHHHHH | not soluble |
| MSLDDEPLLPDFEQLGYPRNLPTLVLGLRGMICEITHSKKNGWGIVKRPGVDKFFNILKNYYEIVIWSDESFPIPHEVLEKWNLPIIGILNKNHFSKINGKLFKNLSRLGRNLNRVILVDNESYSANIQYDNSIVLPIFKGDPYDNELNSIIDLLKAAAMQPGDIREYLKRFRCNDTNIGDEGHHHHHH | soluble |
| SSMIMYRKDLMEKAGLTMPDAPTWDFVKEAAQKMTDKDAEVYGICLRGKAGWGENMAFLTAMANSYGARWFDENWQPQFDGEAWKATLTDYLDMMTNYGPPGASNNGFNENLALFQQGKCGMWIDATVAASFVTNPEESTVADKVGFALAPDTGKGKRANWLWAWNLAIPAGSQKVDAAKQFIAWATSKDYAELVASKEGWANVPPGTRISLYENP | not soluble |
| QNYSIERDVRLAPGEHFQIEGYDFYFSGLRDKDGPNYDGYIADFEITHDGKYINTLHAEKRFYRTAKSMMTEAAIDRGITRDLYIAMGERLDDNRSWAVRIYYKPFVR | not soluble |
| MIDINLIREKPDYVKERLATRDKELVSLVDKVLELDKRRREIIKRLEALRSERNKLSKEIGKLKREGKDTTEIQNRVKELKEEIDRLEEELRKVEEELKNTLLWIPNLPHPSVPVGEDEKDNVEVRRWGEPRKFDFEPKPHWEIGERLGILDFKRGAKLSGSRFTVIAGWGARLERALINFMLDLHTKKGYKEICPPHLVKPEILIGTGQLPKFEEDLYKCERDNLYLIPTAEVPLTNLYREEILKEENLPIYLTAYTPCYRREAGAYGKDIRGIIRQHQFDKVELVKIVHPDTSYDELEKLVKDAEEVLQLLGLPYRVVELCTGDLGFSAAKTYDIEVWFPSQNKYREISSCSNCEDFQARRMNTRFKDSKTGKNRFVHTLNGSGLAVGRTLAAILENYQQEDGSVVVPEVLRDYVGTDVIRPE | soluble |
| METKDLIVIGGGINGAGIAADAAGRGLSVLLLEAQDLACATSSASSKLIHGGLRYLEHYEFRLVSEALSERETLLKMAPHIIFPMRFRLPHQPHLRPAWMIRIGLFMYDNIGKRVSLPASKGLKFGADSVLKPELKQGFEYSDCWVDDARLVVLNAQEVAKRGGEVRTRTKVTRARREQGVWIVDAVDSLTGETFTWRAKGLVNATGPWVKEFFDDGLQLKSPYGIRLIKGSHIVVPRVHNQPQAYILQNKDHRIVFVIPWQDDYSIIGTTDVEYKGNPHDVKIDDNEVGYLLDVYNDHFKQQLTRDDIVWTYSGVRPLCDDESDSPQAITRDYTLSVDDDNGQAPLLSVFGGKLTTYRKLAEHALDKLHKYYPQAGKAWTKDAVLPGGDIAGTRDDYAAALRRRFNLPESLTRRYSRTYGSNSELILANVKGLSDLGEDFGHDLYEAELRYLVEKEWAVTLDDVIWRRTKLGMRFDDAQKQRISDWLVSYRQQQMAKAGLEHHHHHH | soluble |
| MKAYIQVKQVGKRKCSIEKMPIDFPTPPASVQELIEAVVCWQVKEYNERLQQSEMLKYLTCEEMEDKAAAGKVGFEANYNGRPAVETEAIINALQSYEDGIFRIFLDDAELGELSSSVQLKEESTLTFIRLAMLSGRLW | not soluble |
| MAPTRAVIPDDFELPVDAFDIPICYDGDLSGVVIPEGLVRDRVRRLAKDIHAEIGNKPIALLCVLKGSYKFFTALVEELTNARSSCPEPMTVDFIRVKSYEDQMSTGQIQIMGLSNLDELKGKSVLVVDDISDTGRTLAKLLSTLHETGVEKTWTALLLSKRVKRVVDVPEDFVAFEIPDKFIVGYGLDYNQKFRDLGHICVMSPAGIEKYKSE | not soluble |
